This assay addresses F-actin (filamentous actin) from rabbit muscle (rabbit), P68135. The assay is described as follows: co-sedimentation. As to conditions: remark: other sources report otherwise.

B1: EB1 full-length (end-binding protein 1), wild type, Q15691 1-268 (natural protein)
chain: MAVNVYSTSVTSDNLSRHDMLAWINESLQLNLTKIEQLCSGAAYCQFMDMLFPGSIALKKVKFQAKLEHEYIQNFKILQAGFKRMGVDKIIPVDKLVKGKFQDNFEFVQWFKKFFDANYDGKDYDPVAARQGQETAVAPSLVAPALNKPKKPLTSSSAAPQRPISTQRTAAAPKAGPGVVRKNPGVGNGDDEAAELMQQVNVLKLTVEDLEKERDFYFGKLRNIELICQENEGENDPVLQRIVDILYATDEGFVIPDEGGPQEEQEEY
B1 came in with a percent co-pelleted (with APC-C1 added) of 50%.

For the origin of these results see publication PMC4834876.
